# B1: Mmm1-HA (N. crassa Mmm1 with a C-terminal triple hemaglutinin epitope tag) (natural protein, Neurospora crassa, UniProt Q9P353 1-415, looked up)
# chain: MADICPSRSEPTLSFTQGLILGQLSVVLLLAAFIKFFIFGDPPSPEVVASIRATDRRSRTLAHKKSILSLRETNALQLVQNPALNKKHVLRPGPPILTIGSILSKTYYKVDSHQPESLDWFNVLIAQTIAQFRSDAQHDDAILSSLSKALNGTARPDFLDEIKVTELSLGEDFPIFSNCRIIPVDEDGLSFGTGKAFDANMATREGARLQARMDVDLSDMITLAVETKLLLNYPKRLSAVLPVALAVSVVRFSGTLSISFIPSNPSNNEPAKMIFTFLDDYRLDFSIRSLLGSRSRLQDVPKIAQLVESRLHRWFDERCVEPRFQEIALPNMWPRKKNTRGGDETISDVERSMSKAKGVDIAKDVREEARKEIEAEAHGGADRVPDSLRYRHRPRADEEFPGAGSMPGSMPGSMP
# notes: Mmm1, Neurospora crassa; also called HA-tagged Mmm1; Mmm1-HA3; source: N. crassa Δmmm1 transformed with pMmm1-HA (endogenous mmm1 promoter; strains Mmm1-HA3, Mmm1-HA5, Mmm1-HA8), in isolated mitochondria or post mitochondrial pellet; not shown: 3xHA, C-terminal, kept
# Molecular target: the molecule itself
# Assay: non-reducing SDS-PAGE and Western blot; isolated mitochondria dissolved in cracking buffer (0.06 M Tris-HCl pH 6.8, 2.5% SDS, 5% sucrose) without β-mercaptoethanol; anti-HA blot; disulphide-bonded form at about 100 kDa
protein,measurement,value
B1,stoichiometry N,2

# — article PMC3733929, “Analysis of Mutations in Neurospora crassa ERMES Components Reveals Specific Functions Related to β-Barrel Protein Assembly and Maintenance of Mitochondrial Morphology” (PLoS ONE, 2013)
